US6797264B1, “Medicinal product and method for treatment of conditions affecting neural stem cells or progenitor cells” (Cellartis AB, priority 1998, dated 2004)

Tests used:
[1] = system: progenitor cells in the dentate gyrus; assay: BrdU-positive (newborn) cells in the dentate gyrus of hypophysectomized rats; format: in vivo, Fisher rats
From the text: In this example, the density of BrdU-positive cells in the dentate gyrus of hypophysectomized (Hx) rate treated according to the invention with growth hormone (GH), cortisol (C), and L-thyroxine (T) was compared to the density of BrdU-positive cells in the dentate gyrus of hypophysectomized rats treated with cortisol (C), and L-thyroxine (T), and to the density of the same cells for an untreated unoperated control group.
Fisher rats (Harlan Sprague Dawley) which were inact or hypophysectomized at 50 days of age were mainained under standardized conditions of temperature (24-26° C.), humidity (50-60%) and with lights on between 0500 and 1900 h.
(§1) The rats had free access to standard laboratory chow and water. Hormonal treatment started 7-10 days after hyophysectomy. All the hypophysectomized rats were given cortisol phosphate (400 μg/kg/day; Solu-Cortef, Upjohn, Puurs, Belgium) and L-thyroxine (10 μg/kg/day; Sigma, USA) diluted in saline as a daily subcutaneous injection (at 0800 h). Recombinant bovine GH (bGH) was diluted in 0.05 M phosphate buffer, pH 8.6, with 1.6% glycerol and 0.02% sodium azide. GH 1 mg/kg/day was given as one daily subcutaneous injection at 24 h intervals. The treatment continued for seven days. Thereafter the rats were sacrificed and the brains taken out and prepared for immunohistochemistry.
(§2) Ten hypophysectomized rats were substituted with only cortisole and L-thyroxine. […] The thymidine analog BrdU is incorporated into the genetic material upon mitotic division whereafter it can be detected immunohistochemically in the resulting cells. […]
(§3) The number of BrdU positive cells in the dentate gyrus of the hippocampus were counted using unbiased counting techniques. […]
For the immunofluorescence, sections were treated for DNA denaturation as described above, followed by incubation in TBS-TS for 30 min. Thereafter the sections were incubated with mouse-anti-Calbindin-D28k, 1:2000 (Sigma) for 16 h at 4° C. and was detected with a Texas red conjugated donkey anti-mouse IgG. BrdU was detected with a FITC conjugated rabbit anti-BrdU antibody. […]

[2] = system: progenitor cells in the dentate gyrus; assay: BrdU-positive cell proliferation in normal rats treated with GH; format: in vivo, Fisher rats; settings: normal animals treated one week with GH, compared with normal controls and with hypophysectomized animals substituted one week then unsubstituted 3 weeks
Experimental: as §1
as §2, with “L-thyroxine. Fifteen hypophysectomized rats were substituted with cortisole, L-thyroxine and GH.” for “L-thyroxine.”
as §3
The total number of BrdU positive cells in the granule cell layer, the subgranular layer and the hilus and their corresponding sample volumes were determined in 7-9 coronal sections, […], that contained the dentate gyrus. […]

B1: GH: Recombinant bovine growth hormone, given 1 mg/kg/day subcutaneously together with cortisol and L-thyroxine (protein, UniProt P01246 27-217, looked up)
Somatotropin: AFPAMSLSGLFANAVLRAQHLHQLAADTFKEFERTYIPEGQRYSIQNTQVAFCFSETIPAPTGKNEAQQKSDLELLRISLLLIQSWLGPLQFLSRVFTNSLVFGTSDRVYEKLKDLEEGILALMRELEDGTPRAGQILKQTYDKFDTNMRSDDALLKNYGLLSCFRKDLHKTETYLRVMKCRRFGEASCAF
In the case of B1, the “rate of proliferation of progenitor cells” value ([1]; hypophysectomized animals treated with cortisol and L-thyroxine, quantified after one week of substitution) is reported as “significantly increased”, the granulae cell neurons ([1]; hypophysectomized animals, cortisone, thyroxine and GH vs only cortisone and thyroxine, four weeks after the last BrdU injection, FIG. 2) is reported as “significantly more granulae cell neurons” and the “number of newborn cells in the dentate gyrus” value ([1]; hypophysectomized rats, GH 1 mg/kg/day s.c. plus cortisone and thyroxine, after 7 days, compared to only cortisone and thyroxine, FIG. 1) is reported as “significantly increased”. The proliferation [2] was “increased”.
